1 molecule from US20140255414A1 (PROBIODRUG, published 2014) can be followed below.

Square brackets hold non-standard residues; d marks the D form. pGlu = O=C1CC[C@@H](C(=O)O)N1; PEG = not defined here

For assay [1], the target named is T1, gonadoliberin pyroglutamate-peptide (UniProt P01148 24-33, N-terminal pyroglutamate).
T1 peptide (looked up): QHWSYGLRPG
The assay can be described thus: SPR, peptide immobilized on CM5 chip (data not shown).

In assay [2] the target is CCL2 (known as MCP-1) pyroglutamate-peptide (UniProt P13500 24-99, limits assumed, N-terminal pyroglutamate). The description is as above.
Chain of CCL2 (known as MCP-1) pyroglutamate-peptide (P13500 24-99 limits assumed): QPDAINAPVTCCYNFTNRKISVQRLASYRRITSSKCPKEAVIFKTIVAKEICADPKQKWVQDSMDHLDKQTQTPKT
Assay [3] has as its target T2, Aβ(pE11-18)-PEG peptide (reading uncertain).
T2 construct: The PEG attachment is not described further
T2 peptide: [pGlu]VHHQKLV-{PEG}
As to the kind of experiment: ITC at 20 °C, peptide titrated into antibody eluted with KSCN gradient. As to the method: The measurement of heat of reaction was performed at 20° C. Furthermore the heat of reaction was determined which was only generated by dilution of the antigen through the titration into ITC buffer (pH=7.1). Therefore the antigen was injected into the sample cell filled with ITC buffer. The heat of reaction which was generated during the titration of the antigen to the antibody was corrected about this value. The analysis of raw data and the determination of the association constant (KA), reaction stoichiometry (n), binding enthalpy (ΔH) and entropy (ΔS) was performed with Origin Software of MicroCal.
To characterize the binding of anti Aβ11(pE) antibody at the Aβ(pE11-18)-PEG peptide the method of Isothermal Titration calorimetry (ITC) was used (see section 1.3.4). The antibody which was eluted from protein G column with KSCN-gradient (pH 7.0) and 0.1 M glycine-HCl (pH 2.7) was analyzed. With ITC the reaction stoichiometry (N), association constant (KA), binding enthalpy (ΔH) as well as the entropy (ΔS) were determined. The peptide was titrated to anti Aβ11(pE) antibody in the ITC MicroCalorimeter as described in section 1.3.4.2. […] The reaction partners interact and heat is released or absorbed in direct proportion to the amount of binding events. Each injection of antigen leads to change of temperature. To compensate the temperature difference between the sample and reference cell the addition or removal of heat to the sample cell occurs and serves as measurement signal.
At first the heat of the Aβ(pE11-18)-PEG dilution in ITC buffer was determined (see FIG. 16, upper trace). […] Afterwards the peptide Aβ(pE11-18)-PEG was titrated to anti Aβ11(pE) antibody in the sample cell (see FIG. 16, lower trace). The total heat release after each injection was determined by integration of the area between each peak and baseline. Then the heat of dilution (see FIG. 16, upper trace) was subtracted from the total heat release of each injection.

The next assay has as its target T3, AβpE(3-40) peptide (N-terminal pyroglutamate (Aβ position 3)).
T3 construct: Immobilized on a CM5 chip at 1830 RU; also called Aβ3(pE); Aβ N3pE-40
The assay can be described thus: SPR, 1 µg/ml antibody over immobilized AβpE(3-40) against immobilized AβpE(11-30). In general terms: In SPR one partner is held on a chip, and binding of the other changes the refractive index at the surface.

Assay [4] addresses T2, Aβ(pE11-18)-PEG peptide. As to the kind of experiment: ITC at 20 °C, peptide titrated into antibody eluted with KSCN gradient (KD=1/KA). The procedure:
(§1) For the ITC experiment, the peptide Aβ(pE11-18)-PEG was used because the hydrophilic PEG group imparts hydrophilic properties and so it was possible to dissolve the peptide directly in ITC buffer. Former experiments with Aβ(pE11-20) could only be performed with 1-2% DMSO, due to the strong hydrophobicity of the peptide it was necessary to dissolve it with DMSO which could have an effect on the ITC binding properties. At first the antibody was dialyzed against ITC buffer (150 mM NaCl, 25 mM Na₂HPO₄, 25 mM KH₂PO₄, 1 mM EDTA, pH=7.1) over night at 4° C. The lyophilised peptide, stored at −20° C., was dissolved in identical ITC buffer pH=7.1 which was used for antibody dialysis. Both antibody and antigen must be in identical solutions, otherwise large heats of dilution will mask the desired observation. Before the ITC experiment, the concentration of antibody was determined by UV/VIS spectroscopy (see section 1.3.1). […] Furthermore the heat of reaction was determined which was only generated by dilution of the antigen through the titration into ITC buffer (pH=7.1). […]
(§2) To characterize the binding of anti Aβ11(pE) antibody at the Aβ(pE11-18)-PEG peptide the method of Isothermal Titration calorimetry (ITC) was used (see section 1.3.4). The antibody which was eluted from protein G column with KSCN-gradient (pH 7.0) and 0.1 M glycine-HCl (pH 2.7) was analyzed.

The target of assay [5] is T2, Aβ(pE11-18)-PEG peptide. As to the kind of experiment: ITC at 20 °C, peptide titrated into antibody eluted with 0.1 M glycine-HCl pH 2.7 (KD=1/KA). As to the method: as §1, §2

T3 sequence (peptide, as listed by the source): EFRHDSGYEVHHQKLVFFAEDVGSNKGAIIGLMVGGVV

B1: monoclonal mouse anti Aβ11(pE) antibody Aβ 13-11-6 (clone 13), Deposit No. DSM ACC 3100 (antibody, V domains shown)
VH: QVQLQQPGTELVKPGASVKLSCKASGFTFTSYWMHWVRQRPGQGLEWIGEINPSNGRTNYNEKFKSKATLTVDKSSSTAYMQLSSLTSEDSEVYYCARGDLAWDWSAYWGQGTLVTVSA
VL: DIVMSQSPSSLAVSAGEKVTMSCKSSQSLFYSRTRKNYLAWYQQKPGQSPKLLIYWASTRESGVPDRFTGSGSGTDFTLTISSVQAEDLAVYYCKQSYNLWSFGGGTKLEIKR
notes: The KSCN-eluted and glycine-HCl-eluted preparations are the same molecule; also called pEVHH-59025 13-11-6; mAb mouse anti Aβ11(pE)
Broadly, the Kd is the equilibrium constant for the complex coming apart. Turning to B1, the binding result in assay [1] was “no binding (tested: 1 µg/ml antibody)”. The binding result in assay [2] is given as “no binding (tested: 1 µg/ml antibody)”. Besides, in the assay with Aβ(pE11-18)-PEG peptide [3], the “-TΔS” value was -1.27 kcal/mol, the Ka turned out to be 1.27e+07 M⁻¹ and the “Stoichiometry (N)” value is 1.88. The “cross reactivity relative to AβpE(11-30)” value in the assay with AβpE(3-40) peptide worked out at 4 magnitudes lower. Further, in the assay with Aβ(pE11-18)-PEG peptide [4], binding was put at a Kd of 78.7 nM. This molecule also returned a Kd with Aβ(pE11-18)-PEG peptide [5] of 105 nM.
